The record followed here is patent US20260345804 (published 2026).

T1: human IL2v G4S avi his (P1AG0879) (human)
T1 chain: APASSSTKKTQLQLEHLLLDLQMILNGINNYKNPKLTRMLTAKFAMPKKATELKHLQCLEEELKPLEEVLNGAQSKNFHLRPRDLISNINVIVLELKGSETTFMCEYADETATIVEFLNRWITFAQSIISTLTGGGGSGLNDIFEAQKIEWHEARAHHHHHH

B1: P1AH2050 MT204_VL1-combo VH2 & VH6 IgG PG LALA (antibody, V domains shown)
VH: EVQLVESGGGLVQPGGSLRLSCAASGFTFSSYTLAWVRQAPGKGLEWVAAIDSSSYTYSPDTVKGRFTISRDNSKNTLYLQMNSLRAEDTAVYYCARDSNWDALDYWGQGTTVTVSS
VL: DIQMTQSPSSLSASVGDRVTITCRASQGVGTNVGWYQQKPGKAPKALIYSASFRYSGVPSRFSGSGSGTDFTLTISSLQPEDFATYYCQQYYTYPYTFGGGTKVEIKR
B2: P1AH2051 MT204_VL1a-combo VH2 & VH6 IgG PG LALA (antibody, V domains shown)
VH: EVQLVESGGGLVQPGGSLRLSCAASGFTFSSYTLAWVRQAPGKGLEWVAAIDSSSYTYSPDTVKGRFTISRDNSKNTLYLQMNSLRAEDTAVYYCARDSNWDALDYWGQGTTVTVSS
VL: DIQMTQSPSSLSASVGDRVTITCRASQGVGTNVGWYQQKPGKAPKALIYSASFLYSGVPSRFSGSGSGTDFTLTISSLQPEDFATYYCQQYYTYPYTFGGGTKVEIKR
B3: P1AH2052 MT204_VL1b-combo VH2 & VH6 IgG PG LALA (antibody, V domains shown)
VH: EVQLVESGGGLVQPGGSLRLSCAASGFTFSSYTLAWVRQAPGKGLEWVAAIDSSSYTYSPDTVKGRFTISRDNSKNTLYLQMNSLRAEDTAVYYCARDSNWDALDYWGQGTTVTVSS
VL: DIQMTQSPSSLSASVGDRVTITCRASQGVGTNVGWYQQKPGKAPKLLIYSASFLYSGVPSRFSGSGSGTDFTLTISSLQPEDFATYYCQQYYTYPYTFGGGTKVEIKR

The target of the experiment is T1, human IL2v G4S avi his (P1AG0879). The experiment can be described thus: SPR, 25C.
In turn, B1 showed a Kd of 0.427 nM.

Molecule B2 registered a Kd of 0.101 nM.

Regarding B3, the Kd was 0.995 nM. Compared with the last molecule, the Kd is about 9.9-fold higher.
